Measured values reported in IntAct's records for PubMed 18583960.

B1: Serine/threonine-protein kinase TBK1 (Mus musculus), Q9WUN2 (parent)
chain: MQSTSNHLWLLSDILGQGATANVFRGRHKKTGDLYAVKVFNNISFLRPVDVQMREFEVLKKLNHKNIVKLFAIEEETTTRHKVLIMEFCPCGSLYTVLEEPSNAYGLPESEFLIVLRDVVGGMNHLRENGIVHRDIKPGNIMRVIGEDGQSVYKLTDFGAARELEDDEQFVSLYGTEEYLHPDMYERAVLRKDHQKKYGATVDLWSVGVTFYHAATGSLPFRPFEGPRRNKEVMYKIITGKPSGAISGVQKAENGPIDWSGDMPLSCSLSQGLQALLTPVLANILEADQEKCWGFDQFFAETSDVLHRMVIHVFSLQHMTAHKIYIHSYNTAAVFHELVYKQTKIVSSNQELIYEGRRLVLELGRLAQHFPKTTEENPIFVTSREQLNTVGLRYEKISLPKIHPRYDLDGDASMAKAVTGVVCYACRTASTLLLYQELMRKGVRWLVELVKDDYNETVHKKTEVVITLDFCIRNIEKTVKVYEKLMKVNLEAAELGEISDIHTKLLRLSSSQGTIESSLQDISSRLSPGGLLADTWAHQEGTHPRDRNVEKLQVLLNCITEIYYQFKKDKAERRLAYNEEQIHKFDKQKLYYHATKAMSHFSEECVRKYEAFKDKSEEWMRKMLHLRKQLLSLTNQCFDIEEEVSKYQDYTNELQETLPQKMLAASGGVKHAMAPIYPSSNTLVEMTLGMKKLKEEMEGVVKELAENNHILERFGSLTMDGGLRNVDCL
partner: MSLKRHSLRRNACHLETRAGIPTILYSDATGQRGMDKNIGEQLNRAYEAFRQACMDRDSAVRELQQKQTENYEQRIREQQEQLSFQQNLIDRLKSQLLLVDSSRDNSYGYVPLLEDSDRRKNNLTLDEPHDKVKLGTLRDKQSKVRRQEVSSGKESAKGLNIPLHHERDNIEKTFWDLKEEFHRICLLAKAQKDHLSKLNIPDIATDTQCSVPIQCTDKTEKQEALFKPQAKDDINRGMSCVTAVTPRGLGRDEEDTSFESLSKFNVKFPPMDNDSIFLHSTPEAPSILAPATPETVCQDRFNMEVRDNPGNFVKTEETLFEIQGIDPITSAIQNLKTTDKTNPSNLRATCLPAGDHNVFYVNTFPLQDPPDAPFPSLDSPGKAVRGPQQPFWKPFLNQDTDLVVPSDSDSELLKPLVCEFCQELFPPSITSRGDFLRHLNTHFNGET

Variants of: B1
Settings: with tank_mouse Tank

| Variant | effect of a mutation on the interaction |
| --- | --- |
| S172A | decreasing interaction |
